Experimental findings from publication PMC6535076, “Poly(ADP-ribosyl)ation and DNA repair synthesis in the extracts of naked mole rat, mouse, and human cells” are described below.

One data set has as its target PARP2 (mouse (murine), UniProt O88554 1-559). Description: photoaffinity crosslinking; 100 nM protein, 100 nM DNA, EDTA; UV photo-crosslinking, 100 nM 5'-32P photoreactive DNA, EDTA present, Pol beta carried over from probe synthesis, SDS-PAGE; binding buffer, pH and temperature not given in the material. The settings on record: protein: recombinant; label: 5'-32P on strand 1; nicked duplex of 3 strands (upstream, downstream, template), blunt outer ends, 5'-dRP at nick.

In a further data set the target is PARP1 (human, UniProt P09874 1-1014). The data set is described as above. The settings on record: protein: recombinant; label: 5'-32P on strand 1; nicked duplex of 3 strands (upstream, downstream, template), blunt outer ends, 5'-dRP at nick.
Sequence of PARP1 (P09874 whole entry): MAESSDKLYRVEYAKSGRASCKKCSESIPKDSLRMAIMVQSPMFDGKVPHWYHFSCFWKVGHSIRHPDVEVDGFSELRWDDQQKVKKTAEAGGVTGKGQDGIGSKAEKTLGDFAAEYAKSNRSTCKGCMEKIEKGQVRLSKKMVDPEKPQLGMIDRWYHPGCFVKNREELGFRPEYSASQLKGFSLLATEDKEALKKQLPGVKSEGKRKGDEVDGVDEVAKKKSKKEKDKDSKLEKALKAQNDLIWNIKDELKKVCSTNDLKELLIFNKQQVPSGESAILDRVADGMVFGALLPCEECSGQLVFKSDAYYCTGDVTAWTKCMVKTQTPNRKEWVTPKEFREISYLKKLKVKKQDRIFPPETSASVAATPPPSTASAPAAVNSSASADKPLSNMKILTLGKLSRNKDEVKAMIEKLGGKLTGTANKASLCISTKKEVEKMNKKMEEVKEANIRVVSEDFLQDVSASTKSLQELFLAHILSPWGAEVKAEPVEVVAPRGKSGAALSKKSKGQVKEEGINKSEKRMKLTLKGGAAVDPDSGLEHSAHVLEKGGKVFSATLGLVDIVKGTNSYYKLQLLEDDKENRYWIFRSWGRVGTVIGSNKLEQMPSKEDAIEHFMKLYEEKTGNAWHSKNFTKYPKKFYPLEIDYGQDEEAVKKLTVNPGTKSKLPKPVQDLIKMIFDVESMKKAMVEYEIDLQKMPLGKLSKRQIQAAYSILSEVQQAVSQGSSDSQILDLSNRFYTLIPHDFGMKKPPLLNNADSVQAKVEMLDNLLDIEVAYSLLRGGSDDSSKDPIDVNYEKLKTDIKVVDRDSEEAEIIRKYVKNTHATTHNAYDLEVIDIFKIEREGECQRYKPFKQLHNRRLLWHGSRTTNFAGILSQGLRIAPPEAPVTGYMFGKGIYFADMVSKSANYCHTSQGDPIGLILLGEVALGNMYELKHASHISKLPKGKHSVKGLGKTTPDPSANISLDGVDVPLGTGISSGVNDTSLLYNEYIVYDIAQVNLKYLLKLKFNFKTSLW
The next data set deals with HMGB1 (calf (thymus), UniProt P10103 2-215). Description: photoaffinity crosslinking; 300 nM protein, 100 nM DNA, EDTA; more efficient than other DNAs; UV photo-crosslinking, 100 nM 5'-32P photoreactive DNA, EDTA present, Pol beta carried over from probe synthesis, SDS-PAGE; binding buffer, pH and temperature not given in the material. The conditions noted are these: protein: native; label: 5'-32P on strand 1; nicked duplex of 3 strands, blunt outer ends, 6-nt 5' single-stranded flap (GATAAC) at nick.
Sequence of HMGB1 (P10103 2-215): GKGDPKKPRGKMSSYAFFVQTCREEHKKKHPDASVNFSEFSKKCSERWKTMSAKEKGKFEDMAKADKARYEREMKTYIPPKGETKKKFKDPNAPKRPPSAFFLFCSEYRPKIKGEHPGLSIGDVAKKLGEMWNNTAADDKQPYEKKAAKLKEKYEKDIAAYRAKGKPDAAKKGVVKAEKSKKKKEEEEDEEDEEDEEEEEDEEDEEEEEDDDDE

Sequence of PARP2 (O88554 whole entry): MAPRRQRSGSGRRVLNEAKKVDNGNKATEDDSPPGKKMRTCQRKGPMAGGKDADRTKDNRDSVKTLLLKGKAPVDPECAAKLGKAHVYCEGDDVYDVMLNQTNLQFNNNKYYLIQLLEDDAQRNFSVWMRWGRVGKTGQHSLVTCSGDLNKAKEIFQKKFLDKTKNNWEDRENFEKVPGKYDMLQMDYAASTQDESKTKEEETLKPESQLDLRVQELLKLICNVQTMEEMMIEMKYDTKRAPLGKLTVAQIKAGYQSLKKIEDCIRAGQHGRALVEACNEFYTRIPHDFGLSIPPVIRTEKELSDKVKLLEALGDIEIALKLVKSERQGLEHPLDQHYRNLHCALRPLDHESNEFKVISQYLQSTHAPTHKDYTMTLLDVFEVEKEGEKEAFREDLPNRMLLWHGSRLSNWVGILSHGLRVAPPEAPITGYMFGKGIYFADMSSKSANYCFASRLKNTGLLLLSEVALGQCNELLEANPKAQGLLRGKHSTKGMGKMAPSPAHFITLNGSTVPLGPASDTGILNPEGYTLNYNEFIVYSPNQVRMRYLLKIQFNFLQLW

B1: Pho-dRP (dsDNA)
DNA 1: GGCGACTAAGCCGGGC
DNA 2: AACGCCAGGGCCTCCC
DNA 3: GGGAGGCCCTGGCGTTGCCCGGCTTAGTCGCC
modifications: strand 1 3'-terminal C is FAP-dCMP (photoreactive exo-N-substituted dC); strand 2 carries 5'-dRP (phosphate-linked, from Ung-treated 5'-pU)
For B1, the binding result in the data set with PARP2 and with PARP1 was “binds” each time.

B2: Pho-Flap (dsDNA)
DNA 1: GGCGACTAAGCCGGGC
DNA 2: GATAACAACGCCAGGGCCTCCC
DNA 3: B1 DNA 3
modifications: strand 1 3'-terminal C is FAP-dCMP
In the case of B2, the binding result in the data set with HMGB1 was “binds”.
